Data reported in PMC11980035.

Molecular target: PRC2^amKR: PRC2 with EZH2 K510R, K514R, K515R (am-loop lysines mutated to arginines) (human) (UniProt Q15910)

H3K27me3 generated by PRC2^amKR on mononucleosomes (HMTase assay, western blot) with 400 nM PRC2^CXC added: 50%
Substance: PRC2^CXC: PRC2 with EZH2 K568A/Q570A/K574A/Q575A in the CXC domain, automethylated (from UniProt Q15910-2 1-751; Q15022 80-685; O75530 1-441; Q09028 1-425; Q6ZN18 1-517) (complex)
